The results in this text go back to paper PMC10139993.

Sequences and labels used below:
B1: Fused in sarcoma (FUS) wildtype with N-terminal GFP tag [not stated] / itself (parent)
chain: MASNDYTQQATQSYGAYPTQPGQGYSQQSSQPYGQQSYSGYSQSTDTSGYGQSSYSSYGQSQNTGYGTQSTPQGYGSTGGYGSSQSSQSSYGQQSSYPGYGQQPAPSSTSGSYGSSSQSSSYGQPQSGSYSQQPSYGGQQQSYGQQQSYNPPQGYGQQNQYNSSSGGGGGGGGGGNYGQDQSSMSSGGGSGGGYGNQDQSGGGGSGGYGQQDRGGRGRGGSGGGGGGGGGGYNRSSGGYEPRGRGGGRGGRGGMGGSDRGGFNKFGGPRDQGSRHDSEQDNSDNNTIFVQGLGENVTIESVADYFKQIGIIKTNKKTGQPMINLYTDRETGKLKGEATVSFDDPPSAKAAIDWFDGKEFSGNPIKVSFATRRADFNRGGGNGRGGRGRGGPMGRGGYGGGGSGGGGRGGFPSGGGGGGGQQRAGDWKCPNPTCENMNFSWRNECNQCKAPKPDGPGGGPGGSHMGGNYGDDRRGGRGGYDRGGYRGRGGDRGGFRGGRGGGDRGGFGPGKMDSRGEHRQDRRERPY

In this assay the parent is B1. Kind of assay: SiMPull photobleaching step analysis. To be noted: with itself, read off a plot.

With chain 1 R216C, the photobleaching steps by setting is: (0.4M sorbitol 4 hr) 2.2 steps; (no stress) 2.2 steps; (without stress) 2.2 steps.
On to chain 1 G187S, for which the photobleaching steps (0.4M sorbitol 4 hr) came out at 2.5 steps.
For the variant chain 1 R244C, the photobleaching steps worked out at 2.1 steps (0.4M sorbitol 4 hr), 2.1 steps (no stress) and 2.1 steps (without stress).
chain 1 G156E: the photobleaching steps turned out to be 2 steps (0.4M sorbitol 4 hr), 1.6 steps (no stress) and 1.6 steps (without stress).
